Source: patent US20100190701A1 (INDIANA UNIVERSITY RESEARCH AND TECHNOLOGY, published 2010)
Where two headings read alike, the source gives them in different places. Blank lines part the entries; values can stand above or below the binder they belong to. Bridge positions count the residues as written; N and C are the ends. Square brackets hold non-standard residues; d marks the D form. Ends that are not written are not given here. Nle = CCCC[C@H](N)C(=O)O; Orn = NCCC[C@H](N)C(=O)O; PEG = not defined here; Aib = CC(C)(N)C(=O)O

Experiments:
Assay in all cases: cell-based or functional assay
[1] = biological target: T1, glucagon receptor (UniProt P47871 26-477, limits assumed)
[2] = biological target: T2, GLP-1 receptor (UniProt P43220 24-463, limits assumed)
[3] = biological target: T1, glucagon receptor; remark: listed apart in the source
[4] = biological target: T2, GLP-1 receptor; remark: listed apart in the source
[5] = biological target: T2, GLP-1 receptor; remark: listed apart in the source
[6] = biological target: T2, GLP-1 receptor; remark: listed apart in the source

T1 sequence (P47871 26-477 limits assumed): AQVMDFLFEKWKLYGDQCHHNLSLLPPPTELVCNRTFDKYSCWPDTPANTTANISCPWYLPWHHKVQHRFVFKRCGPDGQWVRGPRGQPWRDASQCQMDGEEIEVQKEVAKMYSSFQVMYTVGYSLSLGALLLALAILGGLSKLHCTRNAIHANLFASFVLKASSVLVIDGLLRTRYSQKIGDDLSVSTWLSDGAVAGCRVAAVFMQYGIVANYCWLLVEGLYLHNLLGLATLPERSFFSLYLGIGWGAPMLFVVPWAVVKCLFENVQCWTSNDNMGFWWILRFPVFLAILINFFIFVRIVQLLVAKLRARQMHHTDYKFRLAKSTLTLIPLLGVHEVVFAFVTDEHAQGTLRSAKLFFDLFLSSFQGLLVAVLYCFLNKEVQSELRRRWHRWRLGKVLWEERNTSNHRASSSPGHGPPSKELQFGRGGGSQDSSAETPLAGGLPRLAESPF

Binder: HSQGTFTSDYSKYLDSRRAQDFVQWLVKGGPSSGAPPPS-NH2 [-VKGG30 PSSGAPPPS (SEQ ID NO: 524)]
- EC50 [3]: 1.16 nM
- EC50 [4]: 0.21 nM

Binder: HSQGTFTSDYSKYLDSRRAQDFVQWLMNGGPSSGAPPPS-NH2 [-MNGG30 PSSGAPPPS (SEQ ID NO: 522)]
- EC50 [4]: 0.31 nM

Binder: HSQGTFTSDYSKYLDSRRAQDFVQWLMDGGPSSGAPPPS-NH2 [-MDGG30 PSSGAPPPS (SEQ ID NO: 525)]
- EC50 [3]: 0.12 nM
- EC50 [4]: 0.13 nM

Binder: HAEGTFTSDVSSYLEGQAAKEFIAWLVKGG-NH2 [GLP-1-VKGG30 (SEQ ID NO: 527)]
- EC50 [4]: 0.025 nM

Binder: H[Aib]QGTFTSDYSKYLDEQAAKEFIC(PEG)WLMNT-NH2 (not fully specified; reading uncertain) [Chimera AIB2, Cys24 (SEQ ID NO: 486), parent w/PEG]
- % Potency Relative to Native [1]: 2.6%
- % Potency Relative to Native [2]: 82.5%

Binder: H[Aib]QGTFTSDYSKYLDEQAAKEFIC(PEG)WLMNT-NH2 (lactam 16-20; not fully specified; reading uncertain) [Chimera AIB2, Cys24 Lactam (SEQ ID NO: 504), parent w/PEG]
- % Potency Relative to Native [1]: 9.2%
- % Potency Relative to Native [2]: 38%

Binder: HSQGTFTSDYSKYLDERRAKDFVQWLMDGGPSSGAPPPS-NH2 [E16K20-MDGG30 PSSGAPPPS (SEQ ID NO: 526)]
- EC50 [4]: 0.02 nM

Binder: HSQGTFTSDYSKYLEERRAQDFVQWLMNT-NH2 [E15, E16 Gluc-NH2]
- cAMP Induction, Percent Potency Relative to Native Ligand [6]: 9.2%

Now from value to binder:

- % Potency Relative to Native [1]: 15.4%
- % Potency Relative to Native [2]: 161%
Binder: H[Aib]QGTFTSDYSKYLDEQAAKEFICWLMNT-NH2 [Chimera AIB2, Cys24 (SEQ ID NO: 486), parent w/o PEG]

- % Potency Relative to Native [1]: 114%
- % Potency Relative to Native [2]: 230%
Binder: H[Aib]QGTFTSDYSKYLDEQAAKEFICWLMNT-NH2 (lactam 16-20) [Chimera AIB2, Cys24 Lactam (SEQ ID NO: 504), parent w/o PEG]

- cAMP Induction, Percent Potency Relative to Native Ligand [5]: 0.1%
Binder: HS[Orn]GTFTSDYSKYLDERRAQDFVQWLMNT-NH2 [Orn3, E16 Gluc-NH2]

- EC50 [3]: 0.61 nM
- EC50 [4]: 0.8 nM
Binder: HSQGTFTSDYSKYLDSRRAQDFVQWLMKGGPSSGAPPPS-NH2 [-MKGG30 PSSGAPPPS (SEQ ID NO: 523)]

- cAMP Induction, Percent Potency Relative to Native Ligand [5]: 20.6%
Binder: HS[Nle]GTFTSDYSKYLDERRAQDFVQWLMNT-NH2 [NLeu3, E16 Gluc-NH2]

- EC50 [3]: 0.14 nM
Binder: HSQGTFTSDYSKYLDSRRAQDFVQWLMNTGPSSGAPPPS (C-terminal amide) [Glucagon-Cex]
